Reference: publication PMC5740060

Experiments:
[1] = target: PfTrx-L2-OVX313 (Pyrococcus furiosus | human papillomavirus type 16) (UniProt P03107); assay: SEC; Superdex 200 HR10/30, 25 mM Tris-HCl (pH 7.5), 150 mM NaCl, 0.7 ml/min; heparin-purified antigen; calibrated with molecular mass standards
[2] = target: PfTrx-L2-OVX313 (Pyrococcus furiosus | human papillomavirus type 16) (UniProt P03107); assay: non-reducing SDS-PAGE; heparin-purified antigen electrophoresed without β-mercaptoethanol (disulfide-linked oligomer kept); reduced sample beside it runs as the monomer
[3] = target: L2-OVX313 (human papillomavirus type 16) (UniProt P03107); assay: SEC; Superdex 200 HR10/30, 25 mM Tris-HCl (pH 7.5), 150 mM NaCl, 0.7 ml/min; heparin-purified antigen; calibrated with molecular mass standards
[4] = target: L2-OVX313 (human papillomavirus type 16) (UniProt P03107); assay: non-reducing SDS-PAGE; heparin-purified antigen electrophoresed without β-mercaptoethanol (disulfide-linked oligomer kept); reduced sample beside it runs as the monomer
[5] = target: PfTrx-L2(8x)-OVX313 (Pyrococcus furiosus); assay: SEC; Superdex 200 HR10/30, 25 mM Tris-HCl (pH 7.5), 150 mM NaCl, 0.7 ml/min; heparin-purified antigen; calibrated with molecular mass standards
[6] = target: PfTrx-L2(8x)-OVX313 (Pyrococcus furiosus); assay: non-reducing SDS-PAGE; heparin-purified antigen electrophoresed without β-mercaptoethanol (disulfide-linked oligomer kept); reduced sample beside it runs as the monomer

Which results are given for “PfTrx-L2-OVX313 (from UniProt P03107 20-38; P03107 20-38; P03107 20-38)”?
stoichiometry N [1]: 7; stoichiometry N [2]: 7

What does the source list for “L2-OVX313 (from UniProt P03107 20-38; P03107 20-38; P03107 20-38)”?
stoichiometry N [3]: 7; stoichiometry N [4]: 7

How did the stoichiometry N [5] turn out when PfTrx-L2(8x)-OVX313 was run?
The stoichiometry N was 7.

And the stoichiometry N [6]?
The stoichiometry N was 7.
